Test results reported in PMC3197643 (2011).

B1: V5-tagged full-length OX1R [mouse] / Myc-tagged Dynlt1 [mouse] (parent complex)
chain 1: MEPSATPGAQPGVPTSSGEPFHLPPDYEDEFLRYLWRDYLYPKQYEWVLIAAYVAVFLIALVGNTLVCLAVWRNHHMRTVTNYFIVNLSLADVLVTAICLPASLLVDITESWLFGQALCKVIPYLQAVSVSVAVLTLSFIALDRWYAICHPLLFKSTARRARGSILGIWAVSLAVMVPQAAVMECSSVLPELANRTRLFSVCDEHWADELYPKIYHSCFFIVTYLAPLGLMAMAYFQIFRKLWGRQIPGTTSALVRNWKRPSEQLEAQHQGLCTEPQPRARAFLAEVKQMRARRKTAKMLMVVLLVFALCYLPISVLNVLKRVFGMFRQASDREAVYACFTFSHWLVYANSAANPIIYNFLSGKFREQFKAAFSCCLPGLGPGSSARHKSLSLQSRCSVSKVSEHVVLTTVTTVLS
chain 2: MEDFQASEETAFVVDEVSSIVKEAIESAIGGNAYQHSKVNQWTTNVLEQTLSQLTKLGRPFKYIVTCVIMQKNGAGLHSASSCFWDSSTDGSCTVRWENKTMYCIVSTFGLSI

Variants of: B1
Experiment: co-IP, quantification of Western blotting bands; parent: 100; read off a plot

Row | percent of parent [% vs OX1R wild-type] | Variant
1 | ~28 | chain 1 T409A, chain 1 T412A
